Experimental findings from paper PMC7704405, “Monoclonal Anti-AMP Antibodies Are Sensitive and Valuable Tools for Detecting Patterns of AMPylation” (iScience, 2020) are described below.

For the test, the target named is T1, endogenous AMPylated BiP of CHO-K1 cells (Cricetulus griseus (CHO-K1), UniProt G3I8R9, AMP (threonine 518 is the site the paper names for BiP modified by FICD)).
T1 construct: ER chaperone BiP/Grp-78, endogenous in CHO-K1 cells; also called endogenous BiP-AMP; source: endogenous, CHO-K1 lysate (untreated or treated with CHX 4 h); also after methanol/chloroform precipitation (denatured)
T1 sequence (G3I8R9 19-654): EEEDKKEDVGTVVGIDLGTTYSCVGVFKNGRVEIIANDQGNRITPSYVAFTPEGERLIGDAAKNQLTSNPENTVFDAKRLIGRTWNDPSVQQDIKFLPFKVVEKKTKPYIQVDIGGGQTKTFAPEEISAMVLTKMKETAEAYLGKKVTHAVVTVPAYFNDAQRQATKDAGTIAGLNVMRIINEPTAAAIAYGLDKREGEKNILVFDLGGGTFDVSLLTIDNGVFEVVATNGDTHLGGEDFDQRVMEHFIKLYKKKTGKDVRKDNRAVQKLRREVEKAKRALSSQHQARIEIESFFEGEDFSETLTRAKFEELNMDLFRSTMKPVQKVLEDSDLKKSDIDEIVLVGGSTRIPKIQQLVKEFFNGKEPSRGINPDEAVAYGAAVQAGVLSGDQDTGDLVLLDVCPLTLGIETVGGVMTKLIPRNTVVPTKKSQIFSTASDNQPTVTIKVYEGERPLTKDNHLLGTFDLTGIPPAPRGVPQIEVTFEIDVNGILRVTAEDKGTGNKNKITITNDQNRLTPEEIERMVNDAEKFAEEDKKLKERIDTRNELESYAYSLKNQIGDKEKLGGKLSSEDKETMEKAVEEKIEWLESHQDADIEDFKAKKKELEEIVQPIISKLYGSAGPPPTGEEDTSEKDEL
Kind of test: western blot; 20 μg total cell lysate (HEK293, CHO-K1; untreated, TG 2 h or CHX 4 h; in Figure 4A HEK293 lysate spiked with a titration of recombinant BiP-AMP) on the blot, probed with 17G6 in the presence of MnCl2. As to conditions: one partner purified.

B1: monoclonal anti-AMP antibody 17G6 (antibody, V domains shown)
VH: EVQLQQSGPELVKPGASVKISCKASGYTFTDYYLNWVKQSHGKSLEWIGDIHPNKGINKYNQKFKGKATLTVDKSSSTAYMELRSLTSEDSAVYYCARYYGKRYFDVWGTGTMVTVSS
VL: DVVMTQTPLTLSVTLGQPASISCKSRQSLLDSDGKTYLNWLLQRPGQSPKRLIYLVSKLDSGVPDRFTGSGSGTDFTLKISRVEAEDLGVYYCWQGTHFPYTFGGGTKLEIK
notes: Recognises the AMP moiety on modified side chains; no preference for Thr or Tyr; source: mouse hybridoma (C57BL/6, BSA-hapten immunogen); roller bottle cell culture, purified from the supernatant (Protein A); clone supernatant in the selection ELISA
Take B1: the binding result is on record as “binds”.
